According to the supplement of paper PMC10567573:

B1: PKD2L1 (parent)
chain: SGPEAARAGGWVSGEEFYMLTRRV

Variants of: B1
Assay: protein stability index of a GFP-peptide fusion (GPS, HEK-293T) (PSI 1-6); higher = more stable
Settings: c terminus: a fixed tail appended
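Also: lentivirally expressed fusions sorted by FACS into six bins by GFP to DsRed ratio, PSI derived from sequencing read proportions per bin multiplied by bin number.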

Protein stability index of substitutions, site by site:
E16: C 1.56, G 2.6, N 2.42, R 1.93, T 2.26, A 1.92, D 2.29, M 2.7, K 2.5, I 2.23, F 2.75, Y 2.02, W 2.42, L 1.76, Q 2.25, S 2.73, H 1.64, P 1.78, V 1.64
G10: V 1.72, R 2.56, T 2.73, Q 2.91, W 2.53, Y 1.79, S 2.32
M19: C 2.82, F 2.93, G 3.03, I 2.01, A 2.13, K 3.1, E 3.69, D 3.5, H 3.08
G14: R 3.17, N 3.21, P 3.09, K 2.52, A 3.24, S 2.6, I 2.63, M 2.46, D 3.91, W 2.19, Q 2.57, Y 2.08, L 2.04, E 3.18, H 2.4, V 2.27, F 1.76, T 3
F17: M 3.27, G 4.13, I 2.67, P 3.89, W 2.14, K 3.39, E 4.26, Q 4.05, R 3.68, C 3.03, A 4.1, D 4.59, T 3.37, V 2.5, Y 2.79, N 3.89, L 2.85, S 3.58, H 3.33
W11: P 3.19, L 3.09, D 3.52, E 4.09, C 2.79, G 3.28, R 3.19, N 3.85, Y 2.75, K 2.21, A 3.56, F 2.05, S 2.89, T 3.09, V 3.19, I 2.6, M 2.76, H 4.33, Q 3.92
S13: Q 3.19, E 3.15, D 3.01, C 2.08, R 2.84, N 2.26, W 2.17, L 1.77, Y 2.07, G 2.19, F 2.44, T 2.13, H 2.74, P 2.78, V 2.03, M 2.14, A 1.96, I 1.47, K 2.05
E15: T 2.45, H 2.17, Y 1.65, S 2.1, N 2.46, F 3.15, P 2.52, D 2.54, G 2.2, I 1.59, K 2.92, C 1.54, Q 2.16, A 1.86, W 1.99, V 2.03, L 2.02, M 1.48, R 2.62
Y18: C 3.05, K 4.08, H 3.46, P 3.21, A 3.38, V 2.89, I 2.32, R 3.55, D 3.94, M 2.84, Q 3.03, T 3.52, N 3.69, G 3.44, E 3.77, F 2.23, L 2.56, W 2.69, S 3.4
V12: T 2.31, F 2.12, P 2.31, K 2.47, W 2.28, H 1.84, L 2.6, Q 2.49, C 2.46, Y 1.96, S 3.38, N 2.73, A 2.51, M 2.25, D 2.91, I 2.2, E 3.52, R 2.86, G 3.15
